Substrate in the data set: CCCCCCCCCCCCCCCC(=O)SCCNC(=O)CCNC(=O)[C@H](O)C(C)(C)COP(=O)(O)OP(=O)(O)OC[C@H]1O[C@@H](n2cnc3c(N)ncnc32)[C@H](O)[C@@H]1OP(=O)(O)O
The data set is described as follows: TEAD2 YBD autopalmitoylation kinetics, palmitoyl-CoA dose-dependency. The format is biochemical, human. As to conditions: other: recombinant TEAD2 YBD, alkyne palmitoyl-CoA, 3 min (FIG. 2J); pH 6.4. The protocol:
Intact mass spectrometry analysis of the recombinant TEAD2-YBD was carried out. The peak corresponding to unmodified TEAD2 at 26497 Dalton. A small side peak was also observed at 26736 Dalton (FIG. 2E), consistent with a palmitate modification to the protein. […] Moreover, autopalmitoylation of TEAD2 YBD was confirmed by acyl-biotin exchange (ABE) assay, which converts S-palmitoylation to stable biotinylation for detection (FIG. 2G). With 1 μM of palmitoyl-CoA at neutral pH, TEAD2 YBD was autopalmitoylated within 2 min, and the palmitoylation levels reached saturation after 10 min (FIG. 2H). To determine dose-dependency of palmitoyl-CoA, recombinant TEAD2 YBD was incubated with various concentrations of alkyne palmitoyl-CoA for 3 min, and the reaction rate was determined by quantifying the intensities of streptavidin blots (FIG. 2I). […] The physiological palmitoyl-CoA concentrations range from 100 nM to 10 μM in cells.
Recombinant GST-TEAD2 or His6TEAD2 (500 ng) protein was incubated with the indicated concentrations of alkyne palmitoyl-CoA (Cayman Chemical) for 2 h or the indicated time in 50 mM MES, pH 6.4. […] Samples were analyzed by SDS-PAGE and streptavidin HRP. Bands intensity obtained from streptavidin blot were quantified using Image J (NIH) and the rate of palmitoylation in arbitrary unit was plotted against the concentration of palmitoyl-CoA. […]

B1: TEAD2 YBD (Homo sapiens) (protein)
chain: AWQARGLGTARLQLVEFSAFVEPPDAVDSYQRHLFVHISQHCPSPGAPPLESVDVRQIYDKFPEKKGGLRELYDRGPPHAFFLVKFWADLNWGPSGEEAGAGGSISSGGFYGVSSQYESLEHMTLTCSSKVCSFGKQVVEKVETERAQLEDGRFVYRLLRSPMCEYLVNFLHKLRQLPERYMMNSVLENFTILQVVTNRDTQELLLCTAYVFEVSTSERGAQHHIYRLVRD
notes: The cDNA encoding human TEAD2 (residues 217-447, TEAD2^217-447) was cloned into a pET29 vector; made in house; host or cells: E. coli BL21(DE3)-T1R
What is called Km is the concentration of substrate that gives half-maximal velocity. For the protein B1, the Km stood at 0.8 µM.
